In paper PMC6146835 one finds Kd data, which are given here for two sequences.

In the series the test system is HBG-4kb ZF (synthetic 6-zinc-finger DNA-binding domain) (synthetic construct). As to the kind of experiment: EMSA. The settings on record: 10 mM Tris pH 7.5, 50 mM KCl, 5 mM MgCl2, 100 uM ZnCl2, 1 mM DTT, 0.05% Triton X-100, 2.5% glycerol, 100 ng herring sperm DNA per 20 ul, 15 nM Cy5-dsDNA …. On the technique in general: Mobility shift assays separate free from complexed probe on a gel.

Take “GAGAACTTAGTGGGGGAAAGCAAGCAGAGAGTATAT (double strand) [HBG-4kb on-target]”: the Kd was found to be 29.5 nM.
Regarding “GAGAACTTAGTGGGGGAAAAAAAGCAGAGAGTATAT (double strand) [HBG-4kb off-target (2-nt mutant)]”, the Kd is 90 nM.

The term Kd denotes the equilibrium constant for the complex coming apart.
